From patent US20250152627A1, “COMPOSITIONS AND METHODS FOR ENHANCING IMMUNE CELL FUNCTION USING MODIFIED CELLS WITH GLYCOCALYX EDITING ENZYMES” (Cornell University, priority 2021, published 2025)

Columns and labels:
[1] = tested on: NK-92 cell surface; assay: Flow cytometry of StcE surface level on NK-92 cells (anti His-tag); assay type: cell-based; settings: after washing with buffer; no additional molecular tether
Protocol: Cells were plated, grown for 24 hours, and then induced with various concentrations of doxycycline for 24 hours. Adherent cells were detached by incubating with Accutase (Innovative Cell Technologies) at 37° C. for 10 minutes. GFP nanobody conjugated Alexa Fluor 647, Neutravidin conjugated DyLight 650, CF640R PNA, Alexa Fluor 647 HPA, and biotin MAL-II were diluted 1:200 in 0.5% BSA PBS and incubated with cells at 4° C. for 30 minutes for each stain. For analysis of Muc1 cell surface expression level, anti-Human Muc Clone HMPV was diluted 1:200 in 0.5% BSA PBS and incubated with cells at 4° C. (for 1 hour. Secondary labelling was with Alexa Fluor 647 conjugated goat anti-mouse, diluted 1:1000 in 0.5% BSA PBS and incubated with cells at 4° C. for 1 hour. For analysis of StcE mucinase binding to NK-92 cells, NK cells were incubated with StcE at 37° C. for 1 hour. Cells were thoroughly washed to remove StcE and coculture with target cells. Anti-6× His-tag antibody was diluted 1:100 in 0.5% BSA PBS and incubated with cells at 4° C. for 1 hour. Secondary labelling was with Alexa Fluor 647 goat anti-rabbit IgG, diluted 1:500 in 0.5% BSA PBS or FluoTag-X2 anti-AFLA conjugated with Alexa Fluor 647 was diluted 1:200 in 0.5% BSA PBS and incubated with cells at 4° C. for 1 hour. […]

[2] = tested on: Muc1-GFP expressing 1E7 cells; assay: Removal of cell-surface mucin from 1E7 cells (confocal imaging, GFP nanobody); assay type: cell-based; settings: 100 nM enzyme
Protocol: FIG. 11. StcE mucinase effectively remove cell-surface mucin on 1E7 clone and NK cell. (A) Representative confocal images of Muc1-GFP expressing 1E7 cells with and without treatment with 100 nM StcE, StcE ΔX409, or StcE-EE Zip; Alexa Fluor 647 conjugated to GFP nanobody is used to probe cell-surface Muc1-GFP constructs. (Scale bar, 10 μm). (B) Quantification of mean fluorescence intensity of Muc1-GFP and cell-surface Muc1-GFP probed with GFP nanobody in 1E7 cells treated with the indicated concentration of StcE mucinase; results are shown for induction of Muc1-GFP at 100 ng/ml and 1000 ng/ml doxycycline. (C) Cytotoxicity of NK-92 cells against 1E7 cells treated with control buffer, 100 nM StcE mucinase, or 5,000 U/mL PNGase F for 1 hour; Muc1-GFP induction is at the indicated doxycycline concentration (1,100, and 1,000 ng/ml); NK cell to target cell ratio is 5:1. (D) Flow cytometry analysis of mucin levels on NK-92 cells following incubation with control buffer or 100 nM recombinant StcE or StcE ΔX409; StcE surface level after incubation probed with anti His-tag antibody and cell-surface mucin level probed with catalytically dead StcE E447D conjugated to Cy5. Statistical significance is given by ns—not significant, *P≤0.05, **P≤0.01, ***P≤0.001, ****P≤0.0001. Results are a representative dataset from 3 independent replicates. […]

B1: StcE-ΔX409: StcE with a deleted C-terminal X409 lectin domain; NK cells treated with it: StcE-ΔX409 NK (protein)
chain: ADNNSAIYFNTSQPINDLQGSLAAEVKFAQSQILPAHPKEGDSQPHLTSLRKSLLLVRPVKADDKTPVQVEARDDNNKILGTLTLYPPSSLPDTIYHLDGVPEGGIDFTPHNGTKKIINTVAEVNKLSDASGSSIHSHLTNNALVEIHTANGRWVRDIYLPQGPDLEGKMVRFVSSAGYSSTVFYGDRKVTLSVGNTLLFKYVNGQWFRSGELENNRITYAQHIWSAELPAHWIVPGLNLVIKQGNLSGRLNDIKIGAPGELLLHTIDIGMLTTPRDRFDFAKDKEAHREYFQTIPVSRMIVNNYAPLHLKEVMLPTGELLTDMDPGNGGWHSGTMRQRIGKELVSHGIDNANYGLNSTAGLGENSHPYVVAQLAAHNSRGNYANGIQVHGGSGGGGIVTLDSTLGNEFSHEVGHNYGLGHYVDGFKGSVHRSAENNNSTWGWDGDKKRFIPNFYPSQTNEKSCLNNQCQEPFDGHKFGFDAMAGGSPFSAANRFTMYTPNSSAIIQRFFENKAVFDSRSSTGFSKWNADTQEMEPYEHTIDRAEQITASVNELSESKMAELMAEYAVVKVHMWNGNWTRNIYIPTASADNRGSILTINHEAGYNSYLFINGDEKVVSQGYKKSFVSDGQFWKERDVVDTREARKPEQFGVPVTTLVGYYDPEGTLSSYIYPAMYGAYGFTYSDDSQNLSDNDCQLQVDTKEGQLRFRLANHRANNTVMNKFHINVPTESQPTQATLVCNNKILDTKSLTPAPEGLTYTVN
- binding and retention on the NK-92 cell surface [1]: not retained
- removal / cleavage of cell-surface mucin [2]: could actively digest Muc
